Measured values reported in patent US20260258115A1 (MAPP BIOPHARMACEUTICAL, published 2026).

B1: ADI-20960 (antibody, V domains shown)
VH: QVQLQQWGAGVLKPSETLSLTCAVNGRSLSGHYWSWIRQTPGKGLEWIGEINNSGGTHYSPSLKSRVIISGDTAKNQLSLKLSSVTAADTAVYYCAKGSAEWYFDLWGRGTLVTVSS
VL: DIRVTQSPSTLSASVGDRVTITCRASQSVSTWLAWYQQKPGKPPSLLIFKASTLESGVPSRFSGSGSGTEFTLTISSLQPDDFATYYCQQYNTYSPWTFGPGTKVEIK
B2: ADI-14607 (antibody, V domains shown)
VH: EVQLLESGGGVVQSGRSLRLSCAASGFTFNNYAMHWVRQAPGKGLEWVAVISFDGGNKFYGDSVQGRFTISRDNSKNTLYLQTNSLRPEDTAVYYCARDRWEIQIGLDIWGQGTTVTVSS
VL: SYVLTQPPSVSVSPGQTARITCSGDALARQNAYWYQQKPGQAPVLVMYRDTGRPSGIPERFSGSSSGTTVTLTISEVQAEDEADYYCQSADSSGAYVFGTGTKVTVL
B3: ADI-20975 (antibody, V domains shown)
VH: QVQLVESGTHVKKPGASVKVSCEASDDTFNNKGIVWVRQAPGQGLEWMGWIRPNNGNTKYAQKFQGRVTMTTDASTNTAYMELRSLRSGDTAVYYCAREQFKWNDFYFDYWGQGILVTVSS
VL: SYELMQPPSVSVAPGQTATITCGGSNIGSETVHWYQQKPGQAPVLVVHDDTDRPSGIPERFSGSNSGNTATLTISGVEAGDEADFYCQVRDSRTDDVVFGGGTKLTVL
B4: ADI-20968 (antibody, V domains shown)
VH: QVQLQQWGAGLLKPSETLSLTCAMYGGSFSDDYWSWIRQPPGKGLEWIGEVNHGGSTNYNTSLKSRVTISADTSKKQFSLKLRSVTAADTAVYFCARGWRYCNATTCYSKAFDIWGQGTMVTVSS
VL: DIQMTQSPSSLSASVGDRVTITCQASQDIDIYLIWYQQKPGRAPKLLIYDASNLKTGVPSRFSGSGSGTEFTFTINNLQPEDFATYYCQQFHDLPLTFGGGTKLEIK
B5: ADI-20967 (antibody, V domains shown)
VH: EVQLLESGGGVVQPGRSVRLSCAASGFSFSSYALHWVRQAPGKGLEWVGVIWYEESNKYYADPVKGRFTISRDNSKNTLYLQMNSLRDEDTAVYYCARKGVATAGLDYWGQGTLVTVSS
VL: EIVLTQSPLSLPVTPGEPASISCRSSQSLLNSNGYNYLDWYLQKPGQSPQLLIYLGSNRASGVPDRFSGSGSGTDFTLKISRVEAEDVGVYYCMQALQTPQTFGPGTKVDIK
notes: also called Ab 220
B6: ADI-20963 (antibody, V domains shown)
VH: EVQLVESGGGLAKPGGSLRLSCAASGFTFSHYNMNWVRQAPGKGLEWVSSISSTGFHIYYADSVKGRFVISRDNAENSLHLQMNSLRADDTGLYYCVRAEYYYGSGSAGHYFDSWGQGTLVTVSS
VL: SYVLTQPPSVSVAPGHTAKITCGGSIIGTKSVHWYQQKPGQAPVLVVYDDSDRPSGIPERLSGSRSGNTATLTITRVEAGDEADYYCQVWDSSSEHAGVFGGGTKLTVL
B7: ADI-20972 (antibody, V domains shown)
VH: QVQLQQWGAGLLRPSETLSLTCAVSGGSFSGHYWSWIRQPPGKGLEWIGGINHSGNTNYSPSLRSRVTMSVDTSRNQFSLMLRSVTAADTAVYFCARNVPNLYGDYPRWFDPWGQGTLVTVSS
VL: QSVLTQPASVSGSPGQSITISCTGTSSDVGGFNYVSWYQHHPGKAPKLMIYDVNNRPSGASNRFSGSKSGNTASLTISGLQAEDEADYYCSSYRSSDTLYVFGTGTKVTVL
B8: ADI-14599 (antibody, V domains shown)
VH: EVQLVESGGGLVQPGRSLRLSCKTSGFTFGDYAMSWVRQAPGQGLDWVGFIRTKAYGGTTEYAASVKGRFTLSRDDSKSIAYLQMNSLKTEDTAVYYCKSGGQFDYWGRGTLVTVSS
VL: NFMLTQPHSVSGSPGKTVTISCTGSSGSIASNYVQWYQQRPGSAPTTVICEDNQRPSGVPDRFSGSIDSSSNSASLTISGLKTEDEADYYCQSYDRSNQEVFGGGTKLTVL

Biological target: T1, RSV postfusion F (postF), subtype B (respiratory syncytial virus, subtype B)
T1 construct: also called F ΔFP; Postfusion subtype B
Assay: BLI, IgG

| Binder | Kd |
| --- | --- |
| B1 | 163 pM |
| B2 | 227 pM |
| B3 | 129 pM |
| B4 | 150 pM |
| B5 | 3450 pM |
| B6 | 614 pM |
| B7 | 3480 pM |
| B8 | 358 pM |

Biological target: T2, RSV postfusion F (postF), subtype A (respiratory syncytial virus, subtype A, UniProt P03420 26-513)
T2 construct: also called F ΔFP; Postfusion subtype A
Assay: BLI, IgG

| Binder | Kd |
| --- | --- |
| B1 | 163 pM |
| B2 | 381 pM |
| B3 | 146 pM |
| B4 | 157 pM |
| B5 | 257 pM |
| B6 | 90.9 pM |
| B7 | 401 pM |
| B8 | 636 pM |

Biological target: RSV prefusion F (preF), subtype A (respiratory syncytial virus, subtype A, UniProt P03420 26-513)
Assay: BLI, IgG

| Binder | Kd |
| --- | --- |
| B1 | 220 pM |
| B2 | 1700 pM |
| B3 | 92 pM |
| B4 | 135 pM |
| B5 | 2230 pM |
| B6 | 791 pM |
| B7 | 888 pM |
| B8 | 102 pM |

Biological target: RSV prefusion F (preF), subtype B (respiratory syncytial virus, subtype B)
Assay: BLI, IgG

| Binder | Kd |
| --- | --- |
| B1 | 230 pM |
| B2 | 640 pM |
| B3 | 95.8 pM |
| B4 | 127 pM |
| B5 | 4080 pM |
| B6 | 3140 pM |
| B7 | 6060 pM |
| B8 | 622 pM |
